Test results as given in patent US20160122431A1.

Target: murine B7-DC (murine) (UniProt Q9WUL5)
Assay: flow cytometry; murine bone marrow derived DC incubated with or without soluble PD-1.Ig, then stained with sHIgM12 (the competitor read out)

Sequence of murine B7-DC (murine) (Q9WUL5 20-247): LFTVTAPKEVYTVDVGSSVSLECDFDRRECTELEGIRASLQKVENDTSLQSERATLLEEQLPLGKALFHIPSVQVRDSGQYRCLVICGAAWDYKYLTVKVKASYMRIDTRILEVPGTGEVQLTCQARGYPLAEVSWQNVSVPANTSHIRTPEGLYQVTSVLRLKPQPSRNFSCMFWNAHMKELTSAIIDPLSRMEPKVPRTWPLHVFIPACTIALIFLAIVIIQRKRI
Sequence of PD-1.Ig fusion protein (Fc fusion) (Q02242 25-169): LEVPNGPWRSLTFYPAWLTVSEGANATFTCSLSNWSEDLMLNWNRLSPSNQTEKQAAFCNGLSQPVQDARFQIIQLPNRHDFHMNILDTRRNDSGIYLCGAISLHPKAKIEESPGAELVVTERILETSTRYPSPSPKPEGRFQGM

- sHIgM12 staining left, percent of the level in the absence of PD-1: 50%
Substance: PD-1.Ig fusion protein (Fc fusion)
